According to the supplement of paper PMC10567573:

B1: TEKT4 (parent)
chain: SEVEELNMSLTALREKLLEAEQSL
B2: ZNF8 (parent)
chain: SLGRHKRTHTGEKPYTCSVCGKSF

Variants of: B1
Experiment: protein stability index of a GFP-peptide fusion (GPS, HEK-293T) (PSI 1-6); higher = more stable
Details: c terminus: a fixed tail appended
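Note: lentivirally expressed fusions sorted by FACS into six bins by GFP to DsRed ratio, PSI derived from sequencing read proportions per bin multiplied by bin number.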

Protein stability index of substitutions, site by site:
L24: S 4.63 | C 3.82 | R 4.23 | G 5.01 | M 4.18 | K 5.14 | Q 4.78 | W 3.74 | D 5.19 | N 4.97 | T 4.97 | E 4.69 | V 2.25 | Y 3.82 | H 4.41 | A 4.18
E5: F 2.76 | H 2.72 | A 2.37 | V 2.64 | W 1.79 | K 2.6 | M 2.22 | Y 2.03 | T 2.54 | R 2.35 | S 3.06
M8: R 2.12 | F 3.02 | T 3.25 | E 3.29 | P 3.99 | W 2.28 | G 4.32 | Y 2.37 | V 3.77 | A 2.9 | I 3.17 | N 2.41
L18: C 4.07 | F 3.32 | K 4.74 | G 4.45 | I 2.39 | Y 3.92 | H 3.84 | W 2.86 | D 5.37 | Q 4.23 | M 2.71 | N 4.11 | T 4.54 | S 4.65
E4: Y 1.99 | I 2.59 | M 2.07 | P 2.73 | N 3.12 | Q 2.32 | H 2.06 | F 2.34 | T 2.59 | C 2.29 | S 2.71 | K 2.24 | G 2.89
E15: S 2.27 | M 2.18 | Y 2.15 | C 2.24 | P 3.76 | W 1.59 | D 2.97 | H 2.94 | G 3.04 | A 2.2 | Q 2.52 | V 2.3
K16: V 3.11 | W 3.27 | Y 2.67 | A 3.42 | D 4.25 | P 5.38 | G 3.58 | H 2.83 | M 2.26 | I 2.92 | E 3.19 | N 1.72 | L 2.85 | T 2.83
L13: G 5.15 | S 4.8 | T 5.4 | C 4.68 | A 4.86 | W 3.18 | E 5.42 | R 4.83 | D 5.55 | Q 4.47 | H 5.21 | V 4.55 | P 4.47
S1: D 3.64 | Q 3.52 | F 2.31 | T 2.6 | H 3.19 | R 2.19 | W 2.26 | N 2.2 | L 2.96 | K 2.23 | V 2.76 | G 3.25 | M 2.27 | P 2.94 | A 3.43
S9: W 2.85 | C 2.6 | Y 2.33 | I 2.14 | T 2.67 | R 3.13 | D 3.57 | L 2.3 | K 2.82 | E 2.95 | V 1.66 | A 3
L10: D 4.03 | G 3.74 | Q 4.14 | M 2.64 | A 3.75 | W 2.68 | C 3.15 | R 3.97 | Y 2.93 | H 3.26 | S 3.64 | E 3.55
A12: T 2.3 | Q 2.29 | H 2.76 | F 2.37 | P 4.15 | Y 2.47 | K 3.17 | R 2.54 | L 2.27 | G 2.56 | E 2.38 | S 2.46 | M 1.9 | I 2.36 | W 2.56 | C 2.15
R14: H 3.87 | V 2.07 | A 3.48 | N 4.79 | W 2.58 | K 3.94 | S 4.41 | M 2.02 | D 5.52 | I 2.83 | T 3.62 | Q 3.99
V3: G 3.67 | N 2.57 | K 2.45 | T 2.99 | Y 2.95 | I 3.16 | E 3.98 | S 3.29 | Q 3.4 | L 3.51 | P 3.47 | R 2.83 | W 2.4
E2: H 2.3 | S 2.34 | M 2.74 | T 2.41 | Q 2.69 | F 1.76 | D 3.06 | P 3.14 | C 2.66 | I 2.42 | L 2.72 | N 2.55
T11: Y 1.81 | G 3.02 | V 2.36 | N 3.02 | E 4.1 | L 2.8 | C 2.82 | Q 3.65 | R 3.1 | S 2.92 | A 3.49 | M 2.51 | I 2.35
S23: G 3.66 | R 2.9 | N 3.21 | M 2.74 | Q 2.72 | H 2.31 | E 3.93 | A 2.47 | P 4.45 | Y 2.33 | V 2.87 | C 2.39 | I 2.74 | L 2.37 | D 3.36
E21: A 2.8 | C 2.23 | M 3.16 | Q 3.44 | G 3.51 | S 2.94 | W 2.36 | P 2.45 | T 2.97 | V 2.36 | Y 2.77
A20: V 4.41 | E 5.04 | N 4.52 | W 2.95 | P 4.76 | K 4.9 | Q 4.32 | I 3.55 | R 4.28 | D 4.72 | L 3.98 | F 3.79 | S 4.18 | Y 3.88 | G 4.88
N7: G 2.94 | L 2.31 | R 3.92 | A 2.35 | S 2.97 | F 1.89 | I 3.09 | C 2.48 | D 3.24 | W 2.1 | H 2.43 | Y 3.42 | T 2.63
Q22: D 2.48 | N 2.54 | F 1.75 | L 1.96 | M 1.91 | R 2.64 | W 1.89 | A 2.81 | T 3.64 | E 3.37 | Y 1.94 | K 3.36 | H 2.5 | P 3.99
L6: Y 2.6 | G 3.95 | R 2.87 | S 3.71 | W 2.95 | Q 3.51 | K 3.75 | T 3.02 | P 3.99 | C 3.71 | V 3.58 | F 3 | E 4.33 | D 4.41 | I 2.76 | A 3.81 | H 3.31
E19: F 2.24 | D 3.49 | W 2.26 | Q 2.36 | R 2.78 | N 3.71 | T 3.6 | S 3.41 | H 3.26 | Y 2.62 | M 2.92 | A 2.69 | K 3.97
L17: A 5.53 | W 3.41 | T 5.16 | D 5.26 | C 4.21 | K 5.36 | Q 4.98 | F 3.69 | Y 4.05 | I 4.28 | V 4.45 | G 5.38

Variants of: B2
Experiment: as above
Details: c terminus: a fixed tail appended

Protein stability index: each site, then its substitutions
F24: I 2.92 | H 4.04 | R 2.92 | S 3.44 | L 3.02 | K 3.62 | P 3.5 | V 3.27 | W 2.93 | N 3.27 | T 2.24 | Q 2.69 | M 2.85 | Y 2.45
